From the supplement of paper PMC9112550, “Optimization of the antimicrobial peptide Bac7 by deep mutational scanning” (BMC Biology, 2022)

Tested on: Escherichia coli TOP10
Experiment: shrunken log2 fold change of peptide-encoding DNA abundance (4.5 h post-induction vs induction); higher = less antimicrobial activity (less host growth inhibition)
Conditions: time post-induction: 4.5 h; library: site-saturation at positions 5, 18, 19, 20
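Also: peptides expressed intracellularly from a pBAD plasmid library in pooled LB shake-flask culture, induced with 0.3% L-arabinose, DNA abundance read by NGS, three biological replicates, DESeq2 with apeglm shrinkage.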

| Sequence | shrunken log2 fold change |
| --- | --- |
| RRIRYRPPRLPRPRPRPLATPRP | -0.378 |
| RRIRYRPPRLPRPRPRPLCKPRP | -0.588 |
| RRIRYRPPRLPRPRPRPLCQPRP | -0.648 |
| RRIRYRPPRLPRPRPRPLDQPRP | -0.169 |
| RRIRYRPPRLPRPRPRPLDVPRP | 0.0153 |
| RRIRYRPPRLPRPRPRPLETPRP | -0.0196 |
| RRIRYRPPRLPRPRPRPLGEPRP | -0.172 |
| RRIRYRPPRLPRPRPRPLHEPRP | -0.343 |
| RRIRYRPPRLPRPRPRPLHIPRP | -0.271 |
| RRIRYRPPRLPRPRPRPLKQPRP | -0.0485 |
| RRIRYRPPRLPRPRPRPLMAPRP | -0.681 |
| RRIRYRPPRLPRPRPRPLMCPRP | -0.632 |
| RRIRYRPPRLPRPRPRPLMEPRP | -0.318 |
| RRIRYRPPRLPRPRPRPLMFPRP | -1.04 |
| RRIRYRPPRLPRPRPRPLMKPRP | -0.179 |
| RRIRYRPPRLPRPRPRPLNGPRP | -0.159 |
| RRIRYRPPRLPRPRPRPLPDPRP | -0.108 |
| RRIRYRPPRLPRPRPRPLPGPRP | -0.139 |
| RRIRYRPPRLPRPRPRPLQIPRP | -0.51 |
| RRIRYRPPRLPRPRPRPLQVPRP | -0.0974 |
| RRIRYRPPRLPRPRPRPLRNPRP | -0.277 |
| RRIRYRPPRLPRPRPRPLTCPRP | -0.566 |
| RRIRYRPPRLPRPRPRPLTNPRP | -0.206 |
| RRIRYRPPRLPRPRPRPLTQPRP | -0.416 |
| RRIRYRPPRLPRPRPRPLTVPRP | -0.146 |

| Sequence | shrunken log2 fold change |
| --- | --- |
| RRIRYRPPRLPRPRPRPLTYPRP | -0.144 |
| RRIRYRPPRLPRPRPRPLVWPRP | 0.00227 |
| RRIRYRPPRLPRPRPRPMAQPRP | -0.0848 |
| RRIRYRPPRLPRPRPRPMCHPRP | -0.0146 |
| RRIRYRPPRLPRPRPRPMCMPRP | -0.214 |
| RRIRYRPPRLPRPRPRPMEEPRP | -0.138 |
| RRIRYRPPRLPRPRPRPMERPRP | 0.0776 |
| RRIRYRPPRLPRPRPRPMFDPRP | -1.4 |
| RRIRYRPPRLPRPRPRPMGHPRP | -1.16 |
| RRIRYRPPRLPRPRPRPMHWPRP | -0.597 |
| RRIRYRPPRLPRPRPRPMITPRP | -0.386 |
| RRIRYRPPRLPRPRPRPMLKPRP | -0.374 |
| RRIRYRPPRLPRPRPRPMNLPRP | -0.0114 |
| RRIRYRPPRLPRPRPRPMPQPRP | -0.318 |
| RRIRYRPPRLPRPRPRPMRTPRP | 0.176 |
| RRIRYRPPRLPRPRPRPMSHPRP | -0.425 |
| RRIRYRPPRLPRPRPRPMSQPRP | -0.0802 |
| RRIRYRPPRLPRPRPRPMTAPRP | -0.0394 |
| RRIRYRPPRLPRPRPRPNAMPRP | -0.166 |
| RRIRYRPPRLPRPRPRPNAPPRP | -0.228 |
| RRIRYRPPRLPRPRPRPNCLPRP | -0.942 |
| RRIRYRPPRLPRPRPRPNEAPRP | -0.017 |
| RRIRYRPPRLPRPRPRPNFQPRP | -0.578 |
| RRIRYRPPRLPRPRPRPNHQPRP | -0.573 |
| RRIRYRPPRLPRPRPRPNMHPRP | -0.934 |

| Sequence | shrunken log2 fold change |
| --- | --- |
| RRIRYRPPRLPRPRPRPNNHPRP | -1.1 |
| RRIRYRPPRLPRPRPRPNNKPRP | -1.17 |
| RRIRYRPPRLPRPRPRPNPQPRP | -0.0909 |
| RRIRYRPPRLPRPRPRPNRVPRP | -0.172 |
| RRIRYRPPRLPRPRPRPNSCPRP | 0.0432 |
| RRIRYRPPRLPRPRPRPNSFPRP | -0.0457 |
| RRIRYRPPRLPRPRPRPNVDPRP | -1.26 |
| RRIRYRPPRLPRPRPRPNVHPRP | -0.745 |
| RRIRYRPPRLPRPRPRPPCPPRP | -0.141 |
| RRIRYRPPRLPRPRPRPPCWPRP | 0.263 |
| RRIRYRPPRLPRPRPRPPGIPRP | 0.0348 |
| RRIRYRPPRLPRPRPRPPGRPRP | 0.643 |
| RRIRYRPPRLPRPRPRPPHTPRP | -0.656 |
| RRIRYRPPRLPRPRPRPPIIPRP | -0.148 |
| RRIRYRPPRLPRPRPRPPLLPRP | -0.385 |
| RRIRYRPPRLPRPRPRPPLPPRP | 0.184 |
| RRIRYRPPRLPRPRPRPPLQPRP | 0.187 |
| RRIRYRPPRLPRPRPRPPMCPRP | -0.0507 |
| RRIRYRPPRLPRPRPRPPMRPRP | 0.317 |
| RRIRYRPPRLPRPRPRPPMYPRP | -1.28 |
| RRIRYRPPRLPRPRPRPPNAPRP | 0.153 |
| RRIRYRPPRLPRPRPRPPNPPRP | -0.145 |
| RRIRYRPPRLPRPRPRPPPFPRP | 0.328 |
| RRIRYRPPRLPRPRPRPPRNPRP | 0.142 |
| RRIRYRPPRLPRPRPRPPSVPRP | -0.209 |

| Sequence | shrunken log2 fold change |
| --- | --- |
| RRIRYRPPRLPRPRPRPPTHPRP | -0.251 |
| RRIRYRPPRLPRPRPRPPTKPRP | 0.444 |
| RRIRYRPPRLPRPRPRPPVDPRP | 0.155 |
| RRIRYRPPRLPRPRPRPPWFPRP | -0.205 |
| RRIRYRPPRLPRPRPRPPWLPRP | 1.46 |
| RRIRYRPPRLPRPRPRPPYRPRP | -0.714 |
| RRIRYRPPRLPRPRPRPPYYPRP | -0.214 |
| RRIRYRPPRLPRPRPRPQAKPRP | -0.0419 |
| RRIRYRPPRLPRPRPRPQDHPRP | 0.0457 |
| RRIRYRPPRLPRPRPRPQFPPRP | -0.0877 |
| RRIRYRPPRLPRPRPRPQFYPRP | -1.86 |
| RRIRYRPPRLPRPRPRPQGDPRP | -0.074 |
| RRIRYRPPRLPRPRPRPQHKPRP | -0.547 |
| RRIRYRPPRLPRPRPRPQIFPRP | 0.0295 |
| RRIRYRPPRLPRPRPRPQLKPRP | -0.526 |
| RRIRYRPPRLPRPRPRPQLPPRP | -0.0333 |
| RRIRYRPPRLPRPRPRPQLSPRP | -0.0974 |
| RRIRYRPPRLPRPRPRPQLWPRP | 0.0782 |
| RRIRYRPPRLPRPRPRPQNAPRP | -0.369 |
| RRIRYRPPRLPRPRPRPQPFPRP | 0.00414 |
| RRIRYRPPRLPRPRPRPQPNPRP | -0.226 |
| RRIRYRPPRLPRPRPRPQPTPRP | 0.0156 |
| RRIRYRPPRLPRPRPRPQQYPRP | -1 |
| RRIRYRPPRLPRPRPRPQRRPRP | -0.261 |
| RRIRYRPPRLPRPRPRPQRSPRP | -0.129 |

| Sequence | shrunken log2 fold change |
| --- | --- |
| RRIRYRPPRLPRPRPRPQSAPRP | -0.21 |
| RRIRYRPPRLPRPRPRPQSSPRP | -0.687 |
| RRIRYRPPRLPRPRPRPQTVPRP | -0.261 |
| RRIRYRPPRLPRPRPRPQWDPRP | -0.842 |
| RRIRYRPPRLPRPRPRPQWMPRP | -0.19 |
| RRIRYRPPRLPRPRPRPQYPPRP | -0.733 |
| RRIRYRPPRLPRPRPRPQYVPRP | -0.0294 |
| RRIRYRPPRLPRPRPRPRAGPRP | 0.461 |
| RRIRYRPPRLPRPRPRPRAHPRP | -0.121 |
| RRIRYRPPRLPRPRPRPRAYPRP | -0.0333 |
| RRIRYRPPRLPRPRPRPREGPRP | 0.251 |
| RRIRYRPPRLPRPRPRPRGEPRP | -0.101 |
| RRIRYRPPRLPRPRPRPRGHPRP | -0.117 |
| RRIRYRPPRLPRPRPRPRHGPRP | -0.0607 |
| RRIRYRPPRLPRPRPRPRLAPRP | 0.299 |
| RRIRYRPPRLPRPRPRPRMWPRP | 0.0356 |
| RRIRYRPPRLPRPRPRPRNCPRP | -0.234 |
| RRIRYRPPRLPRPRPRPRNYPRP | -1.26 |
| RRIRYRPPRLPRPRPRPRPCPRP | -0.117 |
| RRIRYRPPRLPRPRPRPRPHPRP | -0.0677 |
| RRIRYRPPRLPRPRPRPRQHPRP | -0.571 |
| RRIRYRPPRLPRPRPRPRRCPRP | 0.254 |
| RRIRYRPPRLPRPRPRPRRVPRP | 0.00201 |
| RRIRYRPPRLPRPRPRPRRYPRP | -0.492 |
| RRIRYRPPRLPRPRPRPRSQPRP | 0.298 |

| Sequence | shrunken log2 fold change |
| --- | --- |
| RRIRYRPPRLPRPRPRPRVFPRP | -0.167 |
| RRIRYRPPRLPRPRPRPRVWPRP | 1.85 |
| RRIRYRPPRLPRPRPRPRWEPRP | -0.0931 |
| RRIRYRPPRLPRPRPRPSAMPRP | -0.0964 |
| RRIRYRPPRLPRPRPRPSCFPRP | -0.361 |
| RRIRYRPPRLPRPRPRPSFRPRP | -0.59 |
| RRIRYRPPRLPRPRPRPSGFPRP | -0.99 |
| RRIRYRPPRLPRPRPRPSGHPRP | -0.265 |
| RRIRYRPPRLPRPRPRPSGVPRP | -0.0951 |
| RRIRYRPPRLPRPRPRPSHPPRP | -0.639 |
| RRIRYRPPRLPRPRPRPSIHPRP | -0.722 |
| RRIRYRPPRLPRPRPRPSKRPRP | -0.236 |
| RRIRYRPPRLPRPRPRPSNIPRP | -1.25 |
| RRIRYRPPRLPRPRPRPSNMPRP | -1.1 |
| RRIRYRPPRLPRPRPRPSPFPRP | 0.0737 |
| RRIRYRPPRLPRPRPRPSPVPRP | -0.612 |
| RRIRYRPPRLPRPRPRPSQLPRP | -0.506 |
| RRIRYRPPRLPRPRPRPSQRPRP | -0.0178 |
| RRIRYRPPRLPRPRPRPSRNPRP | -0.12 |
| RRIRYRPPRLPRPRPRPSSGPRP | 0.00646 |
| RRIRYRPPRLPRPRPRPSSTPRP | -0.158 |
| RRIRYRPPRLPRPRPRPSTDPRP | -0.011 |
| RRIRYRPPRLPRPRPRPSTWPRP | -0.647 |
| RRIRYRPPRLPRPRPRPSVEPRP | -0.481 |
| RRIRYRPPRLPRPRPRPSVIPRP | -0.616 |
